Measurements taken from doi:10.1101/2020.10.21.349480 (2020).

What was measured:
mouse collagen I [1] = molecular target: T1, mouse collagen I (mouse, UniProt P11087 152-1207; Q01149 86-1125); experiment: BLI; analysis by molarity
rat collagen III [2] = molecular target: T2, rat collagen III (rat, UniProt P13941 155-1218); experiment: BLI; analysis by molarity
T2 chain: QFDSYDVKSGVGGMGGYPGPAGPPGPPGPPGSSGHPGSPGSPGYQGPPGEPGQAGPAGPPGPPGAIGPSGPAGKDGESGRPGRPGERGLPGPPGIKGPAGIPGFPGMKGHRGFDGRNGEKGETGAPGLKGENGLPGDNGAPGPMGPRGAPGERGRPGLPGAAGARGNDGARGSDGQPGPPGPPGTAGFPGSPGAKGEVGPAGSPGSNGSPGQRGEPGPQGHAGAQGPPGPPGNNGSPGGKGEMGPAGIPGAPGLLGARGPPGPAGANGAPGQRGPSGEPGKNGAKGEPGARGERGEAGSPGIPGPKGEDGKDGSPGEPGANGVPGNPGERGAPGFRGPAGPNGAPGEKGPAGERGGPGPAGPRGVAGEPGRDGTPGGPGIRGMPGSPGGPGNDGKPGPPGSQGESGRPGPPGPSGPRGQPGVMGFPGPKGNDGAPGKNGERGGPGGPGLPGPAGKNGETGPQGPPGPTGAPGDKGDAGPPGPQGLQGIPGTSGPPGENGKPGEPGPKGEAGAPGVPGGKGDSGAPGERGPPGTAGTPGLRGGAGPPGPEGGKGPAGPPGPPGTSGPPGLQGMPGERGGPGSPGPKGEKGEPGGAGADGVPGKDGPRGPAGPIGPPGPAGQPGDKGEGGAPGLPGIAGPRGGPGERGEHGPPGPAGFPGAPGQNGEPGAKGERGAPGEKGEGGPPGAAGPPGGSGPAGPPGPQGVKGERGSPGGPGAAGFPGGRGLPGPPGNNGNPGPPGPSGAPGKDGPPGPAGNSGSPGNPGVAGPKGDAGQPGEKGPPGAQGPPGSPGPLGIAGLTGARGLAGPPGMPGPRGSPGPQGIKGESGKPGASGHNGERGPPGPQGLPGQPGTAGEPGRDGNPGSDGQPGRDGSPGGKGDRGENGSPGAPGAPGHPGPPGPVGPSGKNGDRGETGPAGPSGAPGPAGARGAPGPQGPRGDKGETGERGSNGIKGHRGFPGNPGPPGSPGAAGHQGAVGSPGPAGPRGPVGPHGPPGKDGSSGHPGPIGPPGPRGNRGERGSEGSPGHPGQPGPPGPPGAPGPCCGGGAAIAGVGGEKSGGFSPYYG

rat collagen I [3] = molecular target: T3, rat collagen I (rat, UniProt P02454 152-1207; P02466 86-1125); experiment: BLI; analysis by molarity
human collagen III [4] = molecular target: T4, human collagen III (human, UniProt P02461 154-1221); experiment: BLI; analysis by molarity
T4 chain: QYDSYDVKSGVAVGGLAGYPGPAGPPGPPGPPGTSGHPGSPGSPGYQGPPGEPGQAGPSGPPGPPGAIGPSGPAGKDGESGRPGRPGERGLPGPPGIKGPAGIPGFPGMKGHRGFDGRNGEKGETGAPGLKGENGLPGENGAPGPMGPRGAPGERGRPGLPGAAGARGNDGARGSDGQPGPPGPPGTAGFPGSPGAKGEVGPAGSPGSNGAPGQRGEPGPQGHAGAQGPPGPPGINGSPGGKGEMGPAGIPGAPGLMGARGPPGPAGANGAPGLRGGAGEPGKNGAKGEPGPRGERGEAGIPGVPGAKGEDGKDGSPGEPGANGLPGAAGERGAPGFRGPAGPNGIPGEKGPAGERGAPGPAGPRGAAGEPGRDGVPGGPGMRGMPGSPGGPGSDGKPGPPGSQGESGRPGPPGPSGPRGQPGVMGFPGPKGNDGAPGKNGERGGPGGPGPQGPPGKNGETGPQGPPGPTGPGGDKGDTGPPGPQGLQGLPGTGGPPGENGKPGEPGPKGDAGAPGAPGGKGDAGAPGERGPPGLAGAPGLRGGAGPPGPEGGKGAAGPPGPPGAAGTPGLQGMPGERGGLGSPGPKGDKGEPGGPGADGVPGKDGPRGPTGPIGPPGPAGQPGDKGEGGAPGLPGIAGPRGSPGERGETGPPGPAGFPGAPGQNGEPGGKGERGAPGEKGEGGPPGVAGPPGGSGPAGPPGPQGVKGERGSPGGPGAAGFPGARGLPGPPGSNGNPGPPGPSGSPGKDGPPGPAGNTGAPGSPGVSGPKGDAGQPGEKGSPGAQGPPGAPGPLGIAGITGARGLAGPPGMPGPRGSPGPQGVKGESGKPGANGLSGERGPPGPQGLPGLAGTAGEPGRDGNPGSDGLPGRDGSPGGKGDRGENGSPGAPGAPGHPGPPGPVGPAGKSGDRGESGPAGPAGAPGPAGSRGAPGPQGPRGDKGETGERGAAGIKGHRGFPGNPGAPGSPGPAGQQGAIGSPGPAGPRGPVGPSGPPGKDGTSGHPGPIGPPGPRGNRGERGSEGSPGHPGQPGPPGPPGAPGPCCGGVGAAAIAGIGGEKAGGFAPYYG

human collagen I [5] = molecular target: T5, human collagen I (human, UniProt P02452 162-1218; P08123 80-1119); experiment: BLI; analysis by molarity
mouse collagen I [6] = molecular target: T1, mouse collagen I; experiment: BLI; analysis by binding sites/mol
rat collagen III [7] = molecular target: T2, rat collagen III; experiment: BLI; analysis by binding sites/mol
rat collagen I [8] = molecular target: T3, rat collagen I; experiment: BLI; analysis by binding sites/mol
human collagen III [9] = molecular target: T4, human collagen III; experiment: BLI; analysis by binding sites/mol
human collagen I [10] = molecular target: T5, human collagen I; experiment: BLI; analysis by binding sites/mol
mouse collagen I [11] = molecular target: T1, mouse collagen I; experiment: BLI; apparent KD, analysis by binding sites/mol
rat collagen III [12] = molecular target: T2, rat collagen III; experiment: BLI; apparent KD, analysis by binding sites/mol
rat collagen I [13] = molecular target: T3, rat collagen I; experiment: BLI; apparent KD, analysis by binding sites/mol
human collagen III [14] = molecular target: T4, human collagen III; experiment: BLI; apparent KD, analysis by binding sites/mol
human collagen I [15] = molecular target: T5, human collagen I; experiment: BLI; apparent KD, analysis by binding sites/mol
mouse collagen I [16] = molecular target: T1, mouse collagen I; experiment: BLI; apparent KD (avidity), analysis by molarity
rat collagen III [17] = molecular target: T2, rat collagen III; experiment: BLI; apparent KD (avidity), analysis by molarity
rat collagen I [18] = molecular target: T3, rat collagen I; experiment: BLI; apparent KD (avidity), analysis by molarity
human collagen III [19] = molecular target: T4, human collagen III; experiment: BLI; apparent KD (avidity), analysis by molarity
human collagen I [20] = molecular target: T5, human collagen I; experiment: BLI; apparent KD (avidity), analysis by molarity

T3 sequence (P02454 152-1207, chain 1 of 2): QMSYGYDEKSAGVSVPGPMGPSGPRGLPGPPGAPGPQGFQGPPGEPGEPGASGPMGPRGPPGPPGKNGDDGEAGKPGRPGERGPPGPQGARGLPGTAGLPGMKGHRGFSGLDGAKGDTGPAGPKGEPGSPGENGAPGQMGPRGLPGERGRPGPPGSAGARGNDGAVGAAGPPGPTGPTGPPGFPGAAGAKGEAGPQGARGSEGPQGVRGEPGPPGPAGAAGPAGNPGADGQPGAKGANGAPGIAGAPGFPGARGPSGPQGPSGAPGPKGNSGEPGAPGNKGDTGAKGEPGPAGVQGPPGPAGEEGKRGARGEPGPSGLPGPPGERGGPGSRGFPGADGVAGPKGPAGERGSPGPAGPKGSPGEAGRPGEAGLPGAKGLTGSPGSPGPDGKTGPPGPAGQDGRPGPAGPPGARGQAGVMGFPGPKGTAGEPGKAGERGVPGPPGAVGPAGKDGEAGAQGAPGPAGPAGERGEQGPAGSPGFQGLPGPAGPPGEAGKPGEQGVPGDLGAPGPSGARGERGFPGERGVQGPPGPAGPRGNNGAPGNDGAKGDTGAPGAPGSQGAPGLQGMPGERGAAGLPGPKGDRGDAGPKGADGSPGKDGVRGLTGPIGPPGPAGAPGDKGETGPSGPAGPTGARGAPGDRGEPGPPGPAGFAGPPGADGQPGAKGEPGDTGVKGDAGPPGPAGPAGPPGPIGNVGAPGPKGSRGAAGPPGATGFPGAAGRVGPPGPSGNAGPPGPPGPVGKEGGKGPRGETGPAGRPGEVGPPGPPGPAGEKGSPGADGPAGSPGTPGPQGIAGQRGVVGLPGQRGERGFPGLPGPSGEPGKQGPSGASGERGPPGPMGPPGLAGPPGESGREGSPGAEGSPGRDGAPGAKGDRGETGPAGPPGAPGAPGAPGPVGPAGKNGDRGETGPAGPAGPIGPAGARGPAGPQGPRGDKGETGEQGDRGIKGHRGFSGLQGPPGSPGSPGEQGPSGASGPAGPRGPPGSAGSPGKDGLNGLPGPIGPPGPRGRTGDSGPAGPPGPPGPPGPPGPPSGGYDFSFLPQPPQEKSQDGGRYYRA
T3 sequence (P02466 86-1125, chain 2 of 2): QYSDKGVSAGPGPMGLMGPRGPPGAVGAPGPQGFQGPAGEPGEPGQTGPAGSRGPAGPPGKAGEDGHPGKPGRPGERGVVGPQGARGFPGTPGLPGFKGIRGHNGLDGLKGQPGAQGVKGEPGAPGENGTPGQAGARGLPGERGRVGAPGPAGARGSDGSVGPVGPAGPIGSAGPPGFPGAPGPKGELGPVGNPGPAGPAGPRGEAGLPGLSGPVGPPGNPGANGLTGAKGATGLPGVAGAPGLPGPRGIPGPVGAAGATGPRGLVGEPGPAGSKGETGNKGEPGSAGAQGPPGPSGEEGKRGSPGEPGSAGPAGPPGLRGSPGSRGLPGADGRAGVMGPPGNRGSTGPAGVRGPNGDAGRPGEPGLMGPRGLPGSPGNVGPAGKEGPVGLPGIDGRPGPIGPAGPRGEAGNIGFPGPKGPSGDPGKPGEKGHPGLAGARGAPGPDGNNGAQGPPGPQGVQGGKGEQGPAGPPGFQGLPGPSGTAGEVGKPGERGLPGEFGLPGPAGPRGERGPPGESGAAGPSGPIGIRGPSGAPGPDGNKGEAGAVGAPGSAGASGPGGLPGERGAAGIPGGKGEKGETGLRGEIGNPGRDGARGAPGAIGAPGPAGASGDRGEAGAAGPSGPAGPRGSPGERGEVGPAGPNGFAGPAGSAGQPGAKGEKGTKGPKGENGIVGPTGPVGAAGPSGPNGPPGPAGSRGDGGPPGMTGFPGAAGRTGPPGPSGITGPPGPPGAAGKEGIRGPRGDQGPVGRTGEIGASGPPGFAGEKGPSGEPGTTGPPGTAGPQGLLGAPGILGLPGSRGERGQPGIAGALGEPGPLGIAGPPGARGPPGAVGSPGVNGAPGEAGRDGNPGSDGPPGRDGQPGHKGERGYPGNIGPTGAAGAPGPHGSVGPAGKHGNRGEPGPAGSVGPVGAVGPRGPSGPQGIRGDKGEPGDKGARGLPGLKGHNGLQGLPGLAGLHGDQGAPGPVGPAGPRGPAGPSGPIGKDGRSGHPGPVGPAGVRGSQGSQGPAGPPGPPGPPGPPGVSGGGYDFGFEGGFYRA
T1 sequence (P11087 152-1207, chain 1 of 2): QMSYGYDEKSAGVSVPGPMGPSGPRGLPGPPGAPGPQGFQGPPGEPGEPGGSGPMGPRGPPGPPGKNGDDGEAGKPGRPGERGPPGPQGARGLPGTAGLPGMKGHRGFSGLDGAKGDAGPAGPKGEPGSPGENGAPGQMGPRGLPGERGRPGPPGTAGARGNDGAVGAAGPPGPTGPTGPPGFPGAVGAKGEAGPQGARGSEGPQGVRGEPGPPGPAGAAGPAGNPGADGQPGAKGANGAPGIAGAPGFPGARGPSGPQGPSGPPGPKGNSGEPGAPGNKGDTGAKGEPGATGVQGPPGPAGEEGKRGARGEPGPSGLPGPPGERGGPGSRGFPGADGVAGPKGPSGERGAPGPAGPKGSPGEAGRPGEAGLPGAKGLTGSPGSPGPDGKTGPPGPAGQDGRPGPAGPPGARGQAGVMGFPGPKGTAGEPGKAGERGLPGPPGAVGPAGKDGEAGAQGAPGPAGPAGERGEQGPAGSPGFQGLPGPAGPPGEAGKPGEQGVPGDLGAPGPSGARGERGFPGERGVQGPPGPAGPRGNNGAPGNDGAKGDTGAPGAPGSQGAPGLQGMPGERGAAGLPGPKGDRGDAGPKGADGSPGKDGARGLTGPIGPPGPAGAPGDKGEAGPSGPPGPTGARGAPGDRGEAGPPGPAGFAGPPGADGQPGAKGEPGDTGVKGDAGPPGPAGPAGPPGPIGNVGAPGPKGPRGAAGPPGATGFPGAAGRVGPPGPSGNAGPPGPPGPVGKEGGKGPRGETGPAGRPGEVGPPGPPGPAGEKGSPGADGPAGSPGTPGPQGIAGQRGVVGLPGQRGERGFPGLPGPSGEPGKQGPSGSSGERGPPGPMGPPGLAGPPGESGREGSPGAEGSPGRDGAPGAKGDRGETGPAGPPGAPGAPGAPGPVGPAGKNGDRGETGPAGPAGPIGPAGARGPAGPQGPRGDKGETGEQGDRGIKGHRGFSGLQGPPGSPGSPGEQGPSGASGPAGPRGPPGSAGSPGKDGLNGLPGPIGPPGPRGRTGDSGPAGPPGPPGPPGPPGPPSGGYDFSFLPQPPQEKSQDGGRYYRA
T1 sequence (Q01149 86-1125, chain 2 of 2): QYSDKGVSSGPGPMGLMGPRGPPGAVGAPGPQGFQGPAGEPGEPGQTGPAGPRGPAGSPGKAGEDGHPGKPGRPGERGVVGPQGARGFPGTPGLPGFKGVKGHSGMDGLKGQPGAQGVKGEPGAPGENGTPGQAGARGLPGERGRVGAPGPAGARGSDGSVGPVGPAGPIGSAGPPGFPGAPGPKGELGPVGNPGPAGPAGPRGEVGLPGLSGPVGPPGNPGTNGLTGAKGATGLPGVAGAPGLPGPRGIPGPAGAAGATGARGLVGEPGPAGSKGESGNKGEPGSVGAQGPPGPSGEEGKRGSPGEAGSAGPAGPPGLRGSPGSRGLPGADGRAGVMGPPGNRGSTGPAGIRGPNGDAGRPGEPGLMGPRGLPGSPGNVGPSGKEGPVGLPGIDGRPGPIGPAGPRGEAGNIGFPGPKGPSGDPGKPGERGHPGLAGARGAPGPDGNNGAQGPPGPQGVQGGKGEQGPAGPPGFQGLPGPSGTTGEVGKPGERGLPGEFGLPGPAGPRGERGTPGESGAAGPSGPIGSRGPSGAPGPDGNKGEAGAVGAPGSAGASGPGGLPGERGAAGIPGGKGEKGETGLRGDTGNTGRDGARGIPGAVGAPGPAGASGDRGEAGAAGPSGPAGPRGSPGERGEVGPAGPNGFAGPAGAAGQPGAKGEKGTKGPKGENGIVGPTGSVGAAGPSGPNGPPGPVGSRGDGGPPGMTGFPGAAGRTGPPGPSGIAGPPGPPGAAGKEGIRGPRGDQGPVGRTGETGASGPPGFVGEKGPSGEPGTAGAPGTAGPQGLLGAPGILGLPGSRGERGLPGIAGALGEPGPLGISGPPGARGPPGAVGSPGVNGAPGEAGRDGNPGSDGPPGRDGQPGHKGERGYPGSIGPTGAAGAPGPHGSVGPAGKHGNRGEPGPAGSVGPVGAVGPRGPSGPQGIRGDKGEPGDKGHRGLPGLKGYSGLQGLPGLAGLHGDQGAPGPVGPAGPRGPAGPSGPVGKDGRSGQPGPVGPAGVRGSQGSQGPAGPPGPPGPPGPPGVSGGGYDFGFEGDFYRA

koff (mouse collagen I [1]): 0.000194 s⁻¹
koff (rat collagen III [2]): 0.000433 s⁻¹
koff (rat collagen I [3]): 0.000241 s⁻¹
koff (human collagen III [4]): 0.000241 s⁻¹
koff (human collagen I [5]): 0.000186 s⁻¹
koff (mouse collagen I [6]): 0.000194 s⁻¹
koff (rat collagen III [7]): 0.000432 s⁻¹
koff (rat collagen I [8]): 0.000241 s⁻¹
koff (human collagen III [9]): 0.000241 s⁻¹
koff (human collagen I [10]): 0.000184 s⁻¹
Kd (mouse collagen I [11]): 12.5 nM
Kd (rat collagen III [12]): 115 nM
Kd (rat collagen I [13]): 3.74 nM
Kd (human collagen III [14]): 47 nM
Kd (human collagen I [15]): 17.2 nM
Kd (mouse collagen I [16]): 0.0918 nM
Kd (rat collagen III [17]): 0.878 nM
Kd (rat collagen I [18]): 0.0387 nM
Kd (human collagen III [19]): 0.51 nM
Kd (human collagen I [20]): 0.126 nM
B1: NC410, LAIR-2 human IgG1 Fc fusion protein (Fc fusion)
chain: QEGALPRPSISAEPGTVISPGSHVTFMCRGPVGVQTFRLEREDRAKYKDSYNVFRLGPSESEARFHIDSVSEGNAGLYRCLYYKPPGWSEHSDFLELLVKESSGGPDSPDTEPGSSAGTVPGTEASGFDAP
